This is an account of results in paper PMC12816604, “Structural basis of double-stranded RNA recognition by the J2 monoclonal antibody”.

Data set [1] has as its system J2 IgG WT, PDB:9OJV_1+PDB:9OJV_2. In words: FP. To be noted: BLI: 25 mM Tris-HCl pH 7.5, 100-400 mM KCl (per row), 2 mM MgCl2, 25 C, IgG immobilized on Protein A; FP: 25 mM Tris-HCl pH 7.5, 100 mM KCl, 2 mM MgCl2, 21 C.
The test system is the same in data set [2]. In words: FP competition. To be noted: vs 3'-FAM VA-I RNA; BLI: 25 mM Tris-HCl pH 7.5, 100-400 mM KCl (per row), 2 mM MgCl2, 25 C, IgG immobilized on Protein A; FP: 25 mM Tris-HCl pH 7.5, 100 mM KCl, 2 mM MgCl2, 21 C.
Data set [3] shares this test system. In words: BLI steady state. To be noted: BLI: 25 mM Tris-HCl pH 7.5, 100-400 mM KCl (per row), 2 mM MgCl2, 25 C, IgG immobilized on Protein A, FP: 25 mM Tris-HCl pH 7.5, 100 mM KCl, 2 mM MgCl2, 21 C.
Data set [4] has as its system J2 IgG HC A30P, PDB:9OJV_1+PDB:9OJV_2. In words: BLI steady state. To be noted: 100 mM KCl; kinetic Kd 28 ± 14 nM; BLI: 25 mM Tris-HCl pH 7.5, 100-400 mM KCl (per row), 2 mM MgCl2, 25 C, IgG immobilized on Protein A; FP: 25 mM Tris-HCl pH 7.5, 100 mM KCl, 2 mM MgCl2, 21 C.
The test system of data set [5] is J2 IgG HC Y50F, PDB:9OJV_1+PDB:9OJV_2. In words: BLI steady state. To be noted: 100 mM KCl; kinetic Kd 94 ± 49 nM; BLI: 25 mM Tris-HCl pH 7.5, 100-400 mM KCl (per row), 2 mM MgCl2, 25 C, IgG immobilized on Protein A; FP: 25 mM Tris-HCl pH 7.5, 100 mM KCl, 2 mM MgCl2, 21 C.
Data set [6] concerns J2 IgG HC Y52F, PDB:9OJV_1+PDB:9OJV_2. In words: BLI steady state. To be noted: 100 mM KCl; kinetic Kd 210 ± 20 nM; BLI: 25 mM Tris-HCl pH 7.5, 100-400 mM KCl (per row), 2 mM MgCl2, 25 C, IgG immobilized on Protein A; FP: 25 mM Tris-HCl pH 7.5, 100 mM KCl, 2 mM MgCl2, 21 C.
Data set [7] has as its system J2 IgG HC Y54A, PDB:9OJV_1+PDB:9OJV_2. In words: BLI steady state. To be noted: 100 mM KCl; kinetic Kd 270 ± 10 nM; BLI: 25 mM Tris-HCl pH 7.5, 100-400 mM KCl (per row), 2 mM MgCl2, 25 C, IgG immobilized on Protein A; FP: 25 mM Tris-HCl pH 7.5, 100 mM KCl, 2 mM MgCl2, 21 C.
Data set [8] deals with J2 IgG HC Y54F, PDB:9OJV_1+PDB:9OJV_2. In words: BLI steady state. To be noted: 100 mM KCl; kinetic Kd 250 ± 40 nM; BLI: 25 mM Tris-HCl pH 7.5, 100-400 mM KCl (per row), 2 mM MgCl2, 25 C, IgG immobilized on Protein A; FP: 25 mM Tris-HCl pH 7.5, 100 mM KCl, 2 mM MgCl2, 21 C.
The test system of data set [9] is J2 IgG LC Y31A, PDB:9OJV_1+PDB:9OJV_2. In words: BLI steady state. To be noted: 100 mM KCl; kinetic Kd 207 ± 21 nM; BLI: 25 mM Tris-HCl pH 7.5, 100-400 mM KCl (per row), 2 mM MgCl2, 25 C, IgG immobilized on Protein A; FP: 25 mM Tris-HCl pH 7.5, 100 mM KCl, 2 mM MgCl2, 21 C.
Data set [10] has as its system J2 IgG LC Y31F, PDB:9OJV_1+PDB:9OJV_2. Description: BLI steady state. To be noted: 100 mM KCl; kinetic Kd 130 ± 20 nM; BLI: 25 mM Tris-HCl pH 7.5, 100-400 mM KCl (per row), 2 mM MgCl2, 25 C, IgG immobilized on Protein A; FP: 25 mM Tris-HCl pH 7.5, 100 mM KCl, 2 mM MgCl2, 21 C.
Data set [11] deals with J2 IgG LC Y38F, PDB:9OJV_1+PDB:9OJV_2. In words: BLI steady state. To be noted: 100 mM KCl; kinetic Kd 83 ± 14 nM; BLI: 25 mM Tris-HCl pH 7.5, 100-400 mM KCl (per row), 2 mM MgCl2, 25 C, IgG immobilized on Protein A; FP: 25 mM Tris-HCl pH 7.5, 100 mM KCl, 2 mM MgCl2, 21 C.
Data set [12] has as its target T1, J2 IgG heavy chain (HC-TEV-His8);J2 IgG light chain (Mus musculus;Mus musculus, UniProt ; ;, |). In words: BLI; 200 mM KCl; BLI: 25 mM Tris-HCl pH 7.5, 2 mM MgCl2, KCl 100 mM (6-20 bp and mutants), 200 mM (30 bp) or 400 mM (40, 50 bp), 25 C; IgG immobilised on Protein A probes. To be noted: protein: recombinant;recombinant, tags: His8 (C-term);, chain copies: 2;2. In general terms: In BLI a coated tip is dipped into the sample, and binding shifts an interference pattern.

Data set [13] has as its target T1, J2 IgG heavy chain (HC-TEV-His8);J2 IgG …. In words: BLI; 400 mM KCl; BLI: 25 mM Tris-HCl pH 7.5, 2 mM MgCl2, KCl 100 mM (6-20 bp and mutants), 200 mM (30 bp) or 400 mM (40, 50 bp), 25 C; IgG immobilised on Protein A probes. To be noted: protein: recombinant;recombinant, tags: His8 (C-term);, chain copies: 2;2.
The target is the same in data set [14]. Description: BLI; 100 mM KCl; BLI: 25 mM Tris-HCl pH 7.5, 2 mM MgCl2, KCl 100 mM (6-20 bp and mutants), 200 mM (30 bp) or 400 mM (40, 50 bp), 25 C; IgG immobilised on Protein A probes. To be noted: protein: recombinant;recombinant; tags: His8 (C-term);; chain copies: 2;2; blunt.

What is called Kd is the constant that tells how readily two partners part at equilibrium. In general, IC50 refers to the point on the concentration scale where inhibition reaches its midpoint. A low value points to greater potency in that assay.

T1 sequence (chain, as listed by the source |, chain 1 of 2): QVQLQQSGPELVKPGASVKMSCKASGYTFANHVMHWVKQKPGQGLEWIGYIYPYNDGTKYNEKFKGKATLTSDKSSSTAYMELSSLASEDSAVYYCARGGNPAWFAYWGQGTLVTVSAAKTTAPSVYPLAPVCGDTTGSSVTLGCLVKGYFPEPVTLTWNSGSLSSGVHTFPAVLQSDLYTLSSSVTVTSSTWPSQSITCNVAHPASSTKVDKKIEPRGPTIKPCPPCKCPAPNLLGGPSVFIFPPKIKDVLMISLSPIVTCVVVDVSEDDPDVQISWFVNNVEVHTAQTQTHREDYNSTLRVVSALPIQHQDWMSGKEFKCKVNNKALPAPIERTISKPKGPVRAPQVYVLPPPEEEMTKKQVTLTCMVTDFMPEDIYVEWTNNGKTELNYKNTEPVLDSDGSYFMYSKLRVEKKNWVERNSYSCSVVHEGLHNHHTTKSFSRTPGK
T1 sequence (chain, as listed by the source |, chain 2 of 2): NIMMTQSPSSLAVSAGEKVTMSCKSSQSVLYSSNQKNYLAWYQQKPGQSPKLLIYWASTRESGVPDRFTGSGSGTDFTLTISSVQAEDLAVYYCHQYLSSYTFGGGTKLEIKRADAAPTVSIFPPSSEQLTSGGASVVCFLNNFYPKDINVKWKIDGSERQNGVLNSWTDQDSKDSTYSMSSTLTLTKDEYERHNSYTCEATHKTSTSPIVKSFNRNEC

In the case of 3'-FAM Adenovirus VA-I RNA, in data set [1], the Kd came to 32 nM.
Regarding “GUUGUAAAGAAAUAUAACAGGCUUGUACCAUUGAUGGAAAAGAACAACGU / ACGUUGUUCUUUUCCAUCAAUGGUACAAGCCUGUUAUAUUUCUUUACAAC [50-bp dsRNA]”, the IC50 in data set [2] amounted to 17 nM. For the same molecule, the Kd in [3] came to 22 nM.
Regarding “GUUGUAAAGAAAUAUAACAGGCUUGUACCAUUGAUGGAAA / UUUCCAUCAAUGGUACAAGCCUGUUAUAUUUCUUUACAAC [40-bp dsRNA]”, the Kd in [3] (400 mM KCl, kinetic Kd 33 ± 6 nM) worked out at 80 nM.
As to “GUUGUAAAGAAGGU / ACCUUCUUUACAAC [14-bp dsRNA]”, the Kd in data set [3] (100 mM KCl, kinetic Kd 1400 ± 800 nM) came to 2100 nM.
“GUUGUAAAGAAAUAUAACAGGCUUGUACCA / UGGUACAAGCCUGUUAUAUUUCUUUACAAC [30-bp dsRNA]” had a Kd in [3] (200 mM KCl, kinetic Kd 37 ± 7 nM) of 47 nM.
“GUUGUAAAGAAAUAUAGGCU / AGCCUAUAUUUCUUUACAAC [20-bp dsRNA]”: the Kd in data set [4] came out at 120 nM; in data set [5] it was 430 nM; in data set [6] it was 220 nM; in data set [7], 300 nM; in data set [8] it was 710 nM; in [9], 940 nM. The Kd in [10] was found to be 360 nM; in [11], 150 nM; in [3] (100 mM KCl, kinetic Kd 150 ± 80 nM) it was 120 nM.

B1: 30-bp dsRNA 47% GC (dsRNA)
RNA 1: GUUGUCCAGAAGGUCAAUAGCGUACCAAAC
RNA 2: GUUUGGUACGCUAUUGACCUUCUGGACAAC
On to B1, for which, in data set [12] (blunt), the Kd was found to be 110 ± 20 nM.

B2: 50-bp dsRNA (dsRNA)
RNA 1: GUUGUAAAGAAGGUCAAUAUUGUACCAAACUUGAUGGAAAAGAACAACGU
RNA 2: ACGUUGUUCUUUUCCAUCAAGUUUGGUACAAUAUUGACCUUCUUUACAAC
On to B2, for which the Kd in data set [13] (blunt) is 22 ± 8 nM.

B3: 14-bp dsRNA (dsRNA)
RNA 1: GUUGUAAAGAAGGU
RNA 2: ACCUUCUUUACAAC
With B3, the Kd in data set [14] was 2100 ± 600 nM.

B4: 30-bp dsRNA 0% GC (dsRNA)
RNA 1: AUUAUAAAUAAUUUAAAUAUUAUAUUAAAU
RNA 2: AUUUAAUAUAAUAUUUAAAUUAUUUAUAAU
Turning to B4, in [12], the Kd worked out at 290 ± 60 nM.

B5: 40-bp AU-dinucleotide dsRNA (dsRNA)
RNA 1: AUAUAUAUAUAUAUAUAUAUAUAUAUAUAUAUAUAUAUAU
RNA 2: AUAUAUAUAUAUAUAUAUAUAUAUAUAUAUAUAUAUAUAU
With B5, the Kd in data set [13] stood at 91 ± 11 nM.

B6: 6-bp dsRNA (dsRNA)
RNA 1: GUUGUA
RNA 2: UACAAC
On to B6, for which the binding result in [14] was “no binding”.

B7: 40-bp dsRNA (dsRNA)
RNA 1: GUUGUAAAGAAGGUCAAUAUUGUACCAAACUUGAUGGAAA
RNA 2: UUUCCAUCAAGUUUGGUACAAUAUUGACCUUCUUUACAAC
On to B7, for which, in [13] (blunt), the Kd was 80 ± 15 nM.

B8: 30-bp dsRNA 17% GC (dsRNA)
RNA 1: GUUGUAAAUAAGUUCAAUAUUAUACUAAAU
RNA 2: AUUUAGUAUAAUAUUGAACUUAUUUACAAC
For the molecule B8, the Kd in data set [12] (blunt) turned out to be 36 ± 22 nM.

B9: 30-bp dsRNA 3% GC (dsRNA)
RNA 1: AUUAUAAAUAAUUUCAAUAUUAUAUUAAAU
RNA 2: AUUUAAUAUAAUAUUGAAAUUAUUUAUAAU
B9: the Kd in data set [12] was 220 ± 90 nM.
